Results reported in patent US20050054835A1 (XOMA TECHNOLOGY, published 2005).

Molecular target: T1, human CD5 cell differentiation marker (human, UniProt P06127 25-495)
T1 sequence: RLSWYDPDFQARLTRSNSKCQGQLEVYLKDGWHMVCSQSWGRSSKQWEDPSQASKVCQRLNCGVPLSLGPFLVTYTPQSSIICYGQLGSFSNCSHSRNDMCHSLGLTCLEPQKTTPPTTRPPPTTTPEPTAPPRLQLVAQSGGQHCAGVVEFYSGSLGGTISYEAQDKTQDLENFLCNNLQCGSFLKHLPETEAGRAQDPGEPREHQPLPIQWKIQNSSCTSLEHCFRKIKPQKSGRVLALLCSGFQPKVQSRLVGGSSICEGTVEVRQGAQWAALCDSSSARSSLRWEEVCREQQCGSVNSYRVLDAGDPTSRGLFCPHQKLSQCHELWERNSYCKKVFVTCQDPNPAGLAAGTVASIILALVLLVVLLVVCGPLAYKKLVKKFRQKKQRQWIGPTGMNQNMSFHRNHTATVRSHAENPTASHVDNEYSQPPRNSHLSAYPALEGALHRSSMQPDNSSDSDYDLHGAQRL
Assay: cell-based or functional assay

B1: he3Fab-rGelA50(C44) (other, not shown: a dimerising Fc or GST)
heavy: EIQLVQSGGGLVKPGGSVRISCAASGYTFTNYGMNWVRQAPGKGLEWMGWINTHTGEPTYADSFKGRFTFSLDDSKNTAYLQINSLRAEDTAVYFCTRRGYDWYFDVWGQGTTVTVSS
light: DIQMTQSPSSLSASVGDRVTITCRASQDINSYLSWFQQKPGKAPKTLIYRANRLESGVPSRFSGSGSGTDYTLTISSLQYEDFGIYYCQQYDESPWTFGGGTKLEIK
chain: GLDTVSFSTKGATYITYVNFLNELRVKLKPEGNSHGIPLLRKKCDDPGKAFVLVALSNDNGQLAEIAIDVTSVYVVGYQVRNRSYFFKDAPDAAYEGLFKNTIKTRLHFGGSYPSLEGEKAYRETTDLGIEPLRIGIKKLDENAIDNYKPTEIASSLLVVIQMVSEAARFTFIENQIRNNFQQRIRPANNTISLENKWGKLSFQIRTSGANGMFSEAVELERANGKKYYVTAVDQVKPKIALLKFVDKDPK
modifications: Cys 44 disulfide-linked through an M2IT linker to the Fab
In the case of B1, the “IC50, whole cell cytotoxicity (inhibition of protein synthesis), CEM cells” value is reported as 173 pM T and the “IC50, whole cell cytotoxicity (inhibition of protein synthesis), HSB2 cells” value is reported as 165 pM T.
